Data taken from patent US20070065444A1 (Amgen, published 2007).
Changes are numbered by the printed parent chain. Numbers in names are those of the source. Where two headings read alike, the source gives them in different places. One block for each binder: values may come before it.

Experiments:
[1] = target: T1, human ALK-1 (full-length, cell surface) (human, UniProt P37023 22-503); assay: cell-based or functional assay
[2] = target: T2, Cynomolgus monkey ALK-1 (full-length, cell surface) (cynomolgus monkey, UniProt P37023 22-503 (human entry)); assay: FACS, 293 stable cells overexpressing full-length Cyno ALK-1, anti-human kappa R-PE secondary, geometric mean against mAb concentration
T2 construct: also called Cyno ALK-1
T2 chain: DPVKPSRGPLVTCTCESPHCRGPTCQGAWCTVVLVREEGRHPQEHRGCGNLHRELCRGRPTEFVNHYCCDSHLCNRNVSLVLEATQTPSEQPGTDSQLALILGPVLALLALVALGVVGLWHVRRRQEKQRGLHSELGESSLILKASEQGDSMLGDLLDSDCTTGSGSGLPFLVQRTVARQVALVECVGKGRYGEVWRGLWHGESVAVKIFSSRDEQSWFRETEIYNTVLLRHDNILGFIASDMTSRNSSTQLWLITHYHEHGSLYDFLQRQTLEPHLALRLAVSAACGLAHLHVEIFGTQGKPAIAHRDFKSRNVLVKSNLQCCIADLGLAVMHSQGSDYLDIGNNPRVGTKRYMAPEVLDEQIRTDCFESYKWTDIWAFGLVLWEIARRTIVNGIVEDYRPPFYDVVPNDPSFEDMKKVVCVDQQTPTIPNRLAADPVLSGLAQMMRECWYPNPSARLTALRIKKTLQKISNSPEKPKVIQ

[3] = target: T1, human ALK-1 (full-length, cell surface); assay: FACS, 293 stable cells overexpressing full-length human ALK-1, anti-human kappa R-PE secondary, geometric mean against mAb concentration
[4] = target: T2, Cynomolgus monkey ALK-1 (full-length, …); assay: FACS on 293 cells overexpressing Cyno ALK-1
[5] = target: T2, Cynomolgus monkey ALK-1 (full-length, …); assay: FACS on 293 cells overexpressing Cyno ALK-1
[6] = target: T3, recombinant human ALK-1/Fc fusion protein (human, UniProt P37023 22-118); assay: SPR (BIAcore 3000) cross-competition on immobilized human ALK-1/Fc chimera
T3 construct: range 22-118; Disulfide-linked homodimer; also called hALK-1/Fc; recombinant human ALK-1/Fc chimera; not shown: Fc region of human IgG

[7] = target: T1, human ALK-1 (full-length, cell surface); assay: FACS on 293 cells overexpressing human ALK-1
[8] = target: T4, cynomologus ALK-1/Fc fusion protein (cynomolgus monkey, UniProt Q5RAN0 22-118 (Pongo abelii entry)); assay: SPR (BIAcore 3000), cALK-1/Fc immobilized, antibody as analyte
T4 construct: also called cALK-1/Fc; not shown: Fc part and any linker not described
T4 chain: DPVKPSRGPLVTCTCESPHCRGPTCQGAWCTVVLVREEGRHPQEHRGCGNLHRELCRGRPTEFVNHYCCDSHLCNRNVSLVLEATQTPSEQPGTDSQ

[9] = target: T3, recombinant human ALK-1/Fc fusion …; assay: SPR (BIAcore 3000), hALK-1/Fc immobilized, antibody as analyte
[10] = target: T5, monomeric ALK-ECD (human, UniProt P37023 22-118); assay: SPR (BIAcore 3000), antibody immobilized, monomeric ALK-ECD as analyte (Example 8, different ECD preparation)
T5 construct: also called ALK-1 ECD His-Tag protein; Human ALK-1 ECD His-Tag Protein

ID1 Taqman IC50 [1]: 58 nM
pSmad1 Western IC50 nM [1]: 17 nM
B1: 1.183.1 (antibody, human IgG2, V domains shown)
VH: QVQLQESGPGLVKPSETLSLTCTVSGGSISSYYWSWIRQPPGKGLEWIGYIYYSGSTNYNPSLKSRVTISVDTSKNQFSLKLSSVTAADTAVYYCAREDDSSGCPYFDYWGQGTLVTASS
VL: EIVMTQSPATLSVSPGERATLSCRASQSVSSNLAWYQQKPGQAPRVLIYGASTRATGIPVRFSGSGSGTEFTLTISSLQSEDFAVYYCQQYNNWPFTFGPGTKVDIK

EC50 (read off the curve) [2]: ~5 nM
EC50 (read off the curve) [3]: ~5 nM
B2: 1.12.1(rWT) (antibody, human IgG2, kappa)
heavy: QVQLQESGPGLVKPSQTLSLTCTVSGGSMSSGEYYWNWIRQHPGKGLEWIGYIYYSGSTYYNPSLKSRVTISVDTSKNQFSLKLSSVTAADTAVYYCARESVAGFDYWGQGTLVTVSSASTKGPSVFPLAPCSRSTSESTAALGCLVKDYFPEPVTVSWNSGALTSGVHTFPAVLQSSGLYSLSSVVTVPSSNFGTQTYTCNVDHKPSNTKVDKTVERKCCVECPPCPAPPVAGPSVFLFPPKPKDTLMISRTPEVTCVVVDVSHEDPEVQFNWYVDGVEVHNAKTKPREEQFNSTFRVVSVLTVVHQDWLNGKEYKCKVSNKGLPAPIEKTISKTKGQPREPQVYTLPPSREEMTKNQVSLTCLVKGFYPSDIAVEWESNGQPENNYKTTPPMLDSDGSFFLYSKLTVDKSRWQQGNVFSCSVMHEALHNHYTQKSLSLSPGK
light: not shown
notes: mAb 1.12.1 expressed as a recombinant mAb; also called recombinant wild-type mAb 1.12.1

Kd [4]: 2 nM
Kd [5]: 2 nM
B3: 1.12.1 (antibody, human IgG2, kappa)
heavy: B2 heavy
light: not shown
notes: Hybridoma-derived human IgG2 kappa antibody; also called mAb 1.12.1 isolated from the hybridoma; hybridoma LN 15916, ATCC PTA-6808

Kd [5]: 3.8 nM
EC50 (read off the curve) [2]: ~3 nM
EC50 (read off the curve) [3]: ~5 nM
B4: 1.12.1(D19A) (antibody, human IgG2, kappa)
heavy: B2 heavy
light: not shown
notes: Recombinant 1.12.1 with the single light-chain mutation D19A

binding result [6]: binds
B5: 1.11.1 (antibody, human IgG2, V domains shown)
VH: QVQLVESGGGVVQPGRSLRLSCAASGFTFSSHGMYWVRQAPGKGLEWVAAIWYDGSNKYYADSVKGRFTISRDNSKNTLYLQMNSLRAEDTAVYYCARDQEQWPDVFDIWGQGTMVTVSS
VL: DIQMTQSPSSLSASVGDRVTITCRASQGIRNYLAWFQQKPGKAPKSLIYGASSLQSGVPSKFSGSGSGTDFTLTISSLQPEDFATYYCQQYNSYPLTFGGGTKVEIK
notes: Human IgG2 kappa antibody from a hybridoma

ID1 Taqman IC50 [1]: 87 nM
pSmad1 Western IC50 nM [1]: 52 nM
Kd [7]: 9.3 nM
Avidity [8]: 150 pM
Avidity [9]: 100 pM
B6: 4.38.1 (antibody, human IgG2, V domains shown)
VH: QVQLQESGPGLVKPSQTLSLTCTVSGGSISSGDYYWSWIRQHPGKGLEWIGYIYYSGSTYYNPSLKSRVTISIDTSKNQFSLKLSSVTAADTAVYYCARERDYGGGFDYWGQGTLVTVSS
VL: not shown
notes: as for B5

Avidity [8]: 19 pM
Avidity [9]: 9.6 pM
B7: 4.62.1 (antibody, V domains shown)
VH: QVQLQESGPGLVKPSQTLSLTCTVSGGSISSGDYYWNWIRQHPGKGLEWIGYIYYSGSTYYNPSLKSRVTISVDTSKNQFSLKLSSVTAADTAVYYCARESTDGMDVWGQGTTVTVSS
VL: not shown
notes: as for B5

ID1 Taqman IC50 [1]: 21 nM
pSmad1 Western IC50 nM [1]: 35 nM
Kd [4]: 3.8 nM
Kd [7]: 6.4 nM
Kd [10]: 0.8 nM
koff [10]: 2.5e-05 s⁻¹
kon [10]: 32000 M⁻¹ s⁻¹
B8: 4.72.1 (antibody, human IgG2, V domains shown)
VH: B7 VH with D33E, N37S, Y54F, V73L
VL: EIVLTQSPGTLSLSPGERATLSCRASQSVSSSYLAWYQRKPGQAPRLLIYGVSSRATGIPDRFSGSGSGTDFTLTISRLEPEDFAVYYCQQYGSSMITFGQGTRLEIK
notes: as for B5

ID1 Taqman IC50 [1]: 100 nM
pSmad1 Western IC50 nM [1]: 82 nM
Kd [4]: 3.1 nM
Kd [7]: 7.6 nM
B9: 4.24.1 (antibody, human IgG2, V domains shown)
VH: B7 VH with G32N
VL: B8 VL with I2N, S32N, R39Q, V52A, R55G, Q91H, M96P
notes: as for B5

ID1 Taqman IC50 [1]: 75 nM
pSmad1 Western IC50 nM [1]: 15 nM
Kd [4]: 3 nM
Kd [7]: 5.6 nM
Avidity [8]: 62 pM
Avidity [9]: 18 pM
koff [9]: 1.1e-05 s⁻¹
B10: 1.162.1 (antibody, human IgG2, V domains shown)
VH: QVQLQESGPGLVKPSQTLSLICTVSGGSISSGEYYWSWIRQHPGKGLEWIGYIYYSGSTYYNPSLKSRLTISVDTSKNQFSLKLSSVTAADTAVYYCAREGIGAFDIWGQGTMVTVSS
VL: B8 VL with R39Q, V52A, S77I, E80D, Q91R, M96P
notes: as for B5

ID1 Taqman IC50 [1]: 14 nM
pSmad1 Western IC50 nM [1]: 15 nM
Kd [7]: 14 nM
B11: 4.58.1 (antibody, human IgG2, V domains shown)
VH: B7 VH with D74A, S101A, D103E, M105F, V107Y, T113L
VL: B8 VL with S31T, S32T, R39Q, V52A, V86L, Q91H, S94T, M96S
notes: as for B5

ID1 Taqman IC50 [1]: 100 nM
pSmad1 Western IC50 nM [1]: 87 nM
B12: 1.13.1 (antibody, human IgG2, V domains shown)
VH: QVHLQESGPGLVKPSETLSLTCTVSGGSVSSGDYYWNWIRQPPGKGLEWIGYIYYSGSTNYNPSLKSRITISIDTSKNQFSLKLNSVTAADTALYYCARESVAAFDYWGQGTLVTVSS
VL: B8 VL with V29I, S32R, R39Q, K40E, V52A, Q91H, M96P
